According to article PMC4495429 (Scientific Reports, 2015):
Changes are numbered by the printed parent chain. In names and notes the source's numbering stands.

Experiments:
[1] = target: T1, homoserine dehydrogenase (HseDH) (Pyrococcus horikoshii, UniProt O58802); test: inhibition of NAD-dependent Hse oxidation, Morrison tight-binding fit; format: biochemical; parameters: gene PH1075; His-tagged HseDH
T1 sequence (O58802 1-319): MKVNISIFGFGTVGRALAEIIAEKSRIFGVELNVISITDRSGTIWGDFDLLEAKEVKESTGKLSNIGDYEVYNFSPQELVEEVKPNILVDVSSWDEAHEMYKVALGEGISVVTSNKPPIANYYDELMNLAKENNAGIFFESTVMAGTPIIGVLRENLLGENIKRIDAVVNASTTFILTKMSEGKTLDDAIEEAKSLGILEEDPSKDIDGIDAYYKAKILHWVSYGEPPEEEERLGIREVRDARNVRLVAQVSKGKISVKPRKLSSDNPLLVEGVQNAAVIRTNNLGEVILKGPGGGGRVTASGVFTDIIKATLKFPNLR

[2] = target: T2, homoserine dehydrogenase (HseDH) (Pyrococcus horikoshii, UniProt O58802, K57A); test: crystal structure at […] Å (with NADPH); format: binding
T2 construct: gene PH1075; ordered residues 1-319 in each subunit (homodimer)
T2 sequence (O58802 1-319 K57A): T1 sequence (O58802 1-319) with K57A

[3] = target: T3, homoserine dehydrogenase (HseDH) (Pyrococcus horikoshii, UniProt O58802, R40A); test: FT-ICR MS of cofactor released from purified protein; format: binding
T3 construct: gene PH1075; His-tagged HseDH
T3 sequence (O58802 1-319 R40A): T1 sequence (O58802 1-319) with R40A

[4] = target: T2, homoserine dehydrogenase (HseDH); test: crystal structure at […] Å (with Hse); FT-ICR MS; format: binding
[5] = target: T1, homoserine dehydrogenase (HseDH); test: crystal structure at […] Å; FT-ICR MS of released cofactor; format: binding; parameters: gene PH1075; ordered residues 1-319 in each subunit (homodimer)
purified protein [6] = substrate: NC(=O)C1=CN([C@@H]2O[C@H](COP(=O)(O)OP(=O)(O)OC[C@H]3O[C@@H](n4cnc5c(N)ncnc54)[C@H](O)[C@@H]3O)[C@@H](O)[C@H]2O)C=CC1; test: purified protein; settings: varied: cofactor
purified protein [7] = substrate: N[C@@H](CCO)C(=O)O; test: purified protein; settings: NAD
purified protein [8] = substrate: NC(=O)c1ccc[n+]([C@@H]2O[C@H](COP(=O)([O-])OP(=O)(O)OC[C@H]3O[C@@H](n4cnc5c(N)ncnc54)[C@H](O)[C@@H]3O)[C@@H](O)[C@H]2O)c1; test: purified protein; format: biochemical, Pyrococcus horikoshii; settings: varied: cofactor
[9] = target: the molecule itself; test: SEC; gel filtration on Superose 6 10/300 GL, 10 mM Tris-HCl (pH 7.5) with 0.2 M NaCl; native mass against Bio-Rad gel filtration standards
purified protein [10] = substrate: NC(=O)c1ccc[n+]([C@@H]2O[C@H](COP(=O)(O)OP(=O)(O)OC[C@H]3O[C@@H](n4cnc5c(N)ncnc54)[C@H](OP(=O)(O)O)[C@@H]3O)[C@@H](O)[C@H]2O)c1; test: purified protein; format: biochemical, Pyrococcus horikoshii; settings: varied: cofactor
[11] = target: the molecule itself; test: crystal structure; sitting-drop vapor diffusion at 20 °C; wild type: 0.1 M potassium phosphate pH 6.2, 20% MPD; K57A with 1 mM Hse: 16% PEG monomethyl ether 2000, 0.1 M citrate pH 6.5; one homodimer in the asymmetric unit

Which Ki [1] does the source give for NC(=O)c1ccc[n+]([C@@H]2O[C@H](COP(=O)(O)OP(=O)(O)OC[C@H]3O[C@@H](n4cnc5c(N)ncnc54)[C@H](OP(=O)(O)O)[C@@H]3O)[C@@H](O)[C@H]2O)c1 [NADP] here?
Its Ki is 5.2 ± 0.1 nM.

N[C@@H](CCO)C(=O)O [Hse] was tested. Which “crystal structure at 2.43 Å (with NADPH)” value [2] did it give?
Its value is “extra density within the active site cavity, and after construction and refinement of the peptide chain, a Hse molecule could be modeled”.

Which results are given for NC(=O)C1=CN([C@@H]2O[C@H](COP(=O)(O)OP(=O)(O)OC[C@H]3O[C@@H](n4cnc5c(N)ncnc54)[C@H](OP(=O)(O)O)[C@@H]3O)[C@@H](O)[C@H]2O)C=CC1 [NADPH]?
FT-ICR MS of cofactor released from purified protein [3]: indicating that NADPH tightly bound to R40A, as in the case of the wild type enzyme; crystal structure at 2.43 Å (with Hse); FT-ICR MS [4]: we observed a clear density corresponding to the cofactor bound within the nucleotide-binding site; crystal structure at 2.30 Å; FT-ICR MS of released cofactor [5]: These results demonstrate that the molecule bound to P. horikoshii HseDH is NADPH.

B1: Pyrococcus horikoshii homoserine dehydrogenase (HseDH), His-tagged wild type (enzyme, UniProt O58802 1-319, looked up)
chain: T1 sequence (O58802 1-319)
notes: Homoserine dehydrogenase, Pyrococcus horikoshii, open reading frame PH1075; amplified from the initiation codon to the termination codon; ordered residues 1-319 in each subunit of the crystal; calculated molecular weight 36,925; Expressed from pColdI (construct pCHseDH); the vector probably adds an N-terminal His6 tag with a factor Xa site (surmised); no tag removal is described; also called P. …
With B1 as the molecule, how does the Km (purified protein [6]) read?
The Km was 19 ± 10 µM.

And the Km (purified protein [7])?
Its Km is 6100 ± 100 µM.

And the Km (purified protein [8])?
The Km was 320 ± 40 µM.

And the Vmax (purified protein [8])?
Its Vmax is 114 µmol/min/mg.

And the kcat (purified protein [8])?
Its kcat is 70.1 ± 4.5 s⁻¹.

What about the kcat/Km (purified protein [8]) of the same molecule?
The kcat/Km was 219000 ± 13000 M⁻¹ s⁻¹.

What about the “stoichiometry N” value [9] of the same molecule?
Its value is 2.

B2: Pyrococcus horikoshii homoserine dehydrogenase (HseDH) K57A mutant, His-tagged (enzyme, UniProt O58802 1-319, looked up)
chain: T1 sequence (O58802 1-319) with K57A
notes: Homoserine dehydrogenase, Pyrococcus horikoshii, open reading frame PH1075, with K57A made by site-directed mutagenesis of pCHseDH; ordered residues 1-319 in each subunit of the crystal; Made from pCHseDH (pColdI); the vector probably adds an N-terminal His6 tag (surmised); Crystallized with Hse; source: E. coli BL21 (DE3) codon plus-RIPL, purified (same method as the His-tagged wild type)
For B2, which Km (purified protein [10]) is on record?
Its Km is 60 ± 10 µM.

What about the Vmax (purified protein [10]) of the same molecule?
The Vmax was 43.3 µmol/min/mg.

What about the kcat (purified protein [10]) of the same molecule?
Its kcat is 26.7 ± 0.2 s⁻¹.

What about the kcat/Km (purified protein [10]) of the same molecule?
Its kcat/Km is 518000 ± 29000 M⁻¹ s⁻¹.

Does B2 bind [11]?
Result: binds

B3: homoserine dehydrogenase (HseDH) (Pyrococcus horikoshii OT3; R40A) (protein)
chain: T1 sequence (O58802 1-319) with R40A
notes: His-tagged HseDH
For B3, which Km (purified protein [10]) is on record?
Its Km is 40 ± 10 µM.

What about the Vmax (purified protein [10]) of the same molecule?
The Vmax was 5.5 µmol/min/mg.

What about the kcat (purified protein [10]) of the same molecule?
The kcat was 3.4 ± 0.2 s⁻¹.

What about the kcat/Km (purified protein [10]) of the same molecule?
Its kcat/Km is 89100 ± 900 M⁻¹ s⁻¹.
